{"source": "the supplement of paper PMC10567573", "parents": {"B1": {"name": "ELF3 (parent)", "chain": "LSKEYWDCLEGKKSKHAPRGTHLW"}}}
{"variants_of": "B1", "assay": "protein stability index of a GFP-peptide fusion (GPS, HEK-293T) (PSI 1-6); higher = more stable", "conditions": "c terminus: a fixed tail appended"}
{"variant": "LSKEYWDCLNGKKSKHAPRGTHLW", "protein stability index": 2.55}
{"variant": "LSKEYFDCLEGKKSKHAPRGTHLW", "protein stability index": 3}
{"variant": "LSKEYVDCLEGKKSKHAPRGTHLW", "protein stability index": 3.13}
{"variant": "LSKEYSDCLEGKKSKHAPRGTHLW", "protein stability index": 3.44}
{"variant": "LSKEYADCLEGKKSKHAPRGTHLW", "protein stability index": 3.6}
{"variant": "LSKEYMDCLEGKKSKHAPRGTHLW", "protein stability index": 3.56}
{"variant": "LSKEYHDCLEGKKSKHAPRGTHLW", "protein stability index": 2.33}
{"variant": "LSKEYYDCLEGKKSKHAPRGTHLW", "protein stability index": 3.22}
{"variant": "LSKEYGDCLEGKKSKHAPRGTHLW", "protein stability index": 2.84}
{"variant": "LSKEYRDCLEGKKSKHAPRGTHLW", "protein stability index": 3.39}
{"variant": "LSKEYDDCLEGKKSKHAPRGTHLW", "protein stability index": 3.93}
{"variant": "LSKEYEDCLEGKKSKHAPRGTHLW", "protein stability index": 3.66}
{"variant": "LSKEYNDCLEGKKSKHAPRGTHLW", "protein stability index": 3.42}
{"variant": "LSKEYPDCLEGKKSKHAPRGTHLW", "protein stability index": 3.82}
{"variant": "LSKEYLDCLEGKKSKHAPRGTHLW", "protein stability index": 3.08}
{"variant": "LSKEYQDCLEGKKSKHAPRGTHLW", "protein stability index": 3.43}
{"variant": "LSKEYCDCLEGKKSKHAPRGTHLW", "protein stability index": 3.38}
{"variant": "LSKEYKDCLEGKKSKHAPRGTHLW", "protein stability index": 3.65}
{"variant": "LSKEYTDCLEGKKSKHAPRGTHLW", "protein stability index": 3.97}
{"variant": "LSKEYIDCLEGKKSKHAPRGTHLW", "protein stability index": 2.96}
{"variant": "CSKEYWDCLEGKKSKHAPRGTHLW", "protein stability index": 2.42}
{"variant": "RSKEYWDCLEGKKSKHAPRGTHLW", "protein stability index": 2.96}
{"variant": "TSKEYWDCLEGKKSKHAPRGTHLW", "protein stability index": 2.53}
{"variant": "VSKEYWDCLEGKKSKHAPRGTHLW", "protein stability index": 2.77}
{"variant": "ISKEYWDCLEGKKSKHAPRGTHLW", "protein stability index": 2.37}
{"variant": "YSKEYWDCLEGKKSKHAPRGTHLW", "protein stability index": 2}
{"variant": "PSKEYWDCLEGKKSKHAPRGTHLW", "protein stability index": 1.86}
{"variant": "WSKEYWDCLEGKKSKHAPRGTHLW", "protein stability index": 1.97}
{"variant": "ASKEYWDCLEGKKSKHAPRGTHLW", "protein stability index": 2.79}
{"variant": "NSKEYWDCLEGKKSKHAPRGTHLW", "protein stability index": 2.63}
{"variant": "GSKEYWDCLEGKKSKHAPRGTHLW", "protein stability index": 3.33}
{"variant": "KSKEYWDCLEGKKSKHAPRGTHLW", "protein stability index": 3.02}
{"variant": "DSKEYWDCLEGKKSKHAPRGTHLW", "protein stability index": 3.2}
{"variant": "SSKEYWDCLEGKKSKHAPRGTHLW", "protein stability index": 2.67}
{"variant": "ESKEYWDCLEGKKSKHAPRGTHLW", "protein stability index": 3.35}
{"variant": "QSKEYWDCLEGKKSKHAPRGTHLW", "protein stability index": 2.71}
{"variant": "MSKEYWDCLEGKKSKHAPRGTHLW", "protein stability index": 2.06}
{"variant": "HSKEYWDCLEGKKSKHAPRGTHLW", "protein stability index": 2.16}
{"variant": "LSKEYWWCLEGKKSKHAPRGTHLW", "protein stability index": 1.89}
{"variant": "LSKEYWVCLEGKKSKHAPRGTHLW", "protein stability index": 2.44}
{"variant": "LSKEYWFCLEGKKSKHAPRGTHLW", "protein stability index": 1.83}
{"variant": "LSKEYWYCLEGKKSKHAPRGTHLW", "protein stability index": 2.29}
{"variant": "LSKEYWLCLEGKKSKHAPRGTHLW", "protein stability index": 2.26}
{"variant": "LSKEYWSCLEGKKSKHAPRGTHLW", "protein stability index": 2.44}
{"variant": "LSKEYWNCLEGKKSKHAPRGTHLW", "protein stability index": 2.96}
{"variant": "LSKEYWGCLEGKKSKHAPRGTHLW", "protein stability index": 2.15}
{"variant": "LSKEYWTCLEGKKSKHAPRGTHLW", "protein stability index": 2.76}
{"variant": "LSKEYWMCLEGKKSKHAPRGTHLW", "protein stability index": 2.6}
{"variant": "LSKEYWRCLEGKKSKHAPRGTHLW", "protein stability index": 1.65}
{"variant": "LSKEYWICLEGKKSKHAPRGTHLW", "protein stability index": 2.05}
{"variant": "LSKEYWQCLEGKKSKHAPRGTHLW", "protein stability index": 3}
{"variant": "LSKEYWCCLEGKKSKHAPRGTHLW", "protein stability index": 2.32}
{"variant": "LSKEYWHCLEGKKSKHAPRGTHLW", "protein stability index": 2.33}
{"variant": "LSKEYWKCLEGKKSKHAPRGTHLW", "protein stability index": 2.41}
{"variant": "LSKEYWPCLEGKKSKHAPRGTHLW", "protein stability index": 2.04}
{"variant": "LSKEYWECLEGKKSKHAPRGTHLW", "protein stability index": 2.77}
{"variant": "LSKEYWACLEGKKSKHAPRGTHLW", "protein stability index": 2.28}
{"variant": "LIKEYWDCLEGKKSKHAPRGTHLW", "protein stability index": 2.26}
{"variant": "LAKEYWDCLEGKKSKHAPRGTHLW", "protein stability index": 2.59}
{"variant": "LQKEYWDCLEGKKSKHAPRGTHLW", "protein stability index": 2.78}
{"variant": "LCKEYWDCLEGKKSKHAPRGTHLW", "protein stability index": 2.29}
{"variant": "LYKEYWDCLEGKKSKHAPRGTHLW", "protein stability index": 1.91}
{"variant": "LRKEYWDCLEGKKSKHAPRGTHLW", "protein stability index": 2.48}
{"variant": "LTKEYWDCLEGKKSKHAPRGTHLW", "protein stability index": 2.98}
{"variant": "LEKEYWDCLEGKKSKHAPRGTHLW", "protein stability index": 3.59}
{"variant": "LGKEYWDCLEGKKSKHAPRGTHLW", "protein stability index": 3.12}
{"variant": "LFKEYWDCLEGKKSKHAPRGTHLW", "protein stability index": 2.26}
{"variant": "LKKEYWDCLEGKKSKHAPRGTHLW", "protein stability index": 2.28}
{"variant": "LPKEYWDCLEGKKSKHAPRGTHLW", "protein stability index": 2.99}
{"variant": "LMKEYWDCLEGKKSKHAPRGTHLW", "protein stability index": 2.48}
{"variant": "LHKEYWDCLEGKKSKHAPRGTHLW", "protein stability index": 3.04}
{"variant": "LNKEYWDCLEGKKSKHAPRGTHLW", "protein stability index": 3.13}
{"variant": "LDKEYWDCLEGKKSKHAPRGTHLW", "protein stability index": 3.11}
{"variant": "LLKEYWDCLEGKKSKHAPRGTHLW", "protein stability index": 1.91}
{"variant": "LVKEYWDCLEGKKSKHAPRGTHLW", "protein stability index": 2.36}
{"variant": "LSKQYWDCLEGKKSKHAPRGTHLW", "protein stability index": 1.74}
{"variant": "LSKHYWDCLEGKKSKHAPRGTHLW", "protein stability index": 1.89}
{"variant": "LSKPYWDCLEGKKSKHAPRGTHLW", "protein stability index": 2.35}
{"variant": "LSKDYWDCLEGKKSKHAPRGTHLW", "protein stability index": 2.8}
{"variant": "LSKMYWDCLEGKKSKHAPRGTHLW", "protein stability index": 2.56}
{"variant": "LSKIYWDCLEGKKSKHAPRGTHLW", "protein stability index": 2.65}
{"variant": "LSKKYWDCLEGKKSKHAPRGTHLW", "protein stability index": 2.11}
{"variant": "LSKCYWDCLEGKKSKHAPRGTHLW", "protein stability index": 4.2}
{"variant": "LSKSYWDCLEGKKSKHAPRGTHLW", "protein stability index": 2.38}
{"variant": "LSKVYWDCLEGKKSKHAPRGTHLW", "protein stability index": 2.53}
{"variant": "LSKLYWDCLEGKKSKHAPRGTHLW", "protein stability index": 2.06}
{"variant": "LSKRYWDCLEGKKSKHAPRGTHLW", "protein stability index": 1.86}
{"variant": "LSKYYWDCLEGKKSKHAPRGTHLW", "protein stability index": 2.16}
{"variant": "LSKWYWDCLEGKKSKHAPRGTHLW", "protein stability index": 1.58}
{"variant": "LSKGYWDCLEGKKSKHAPRGTHLW", "protein stability index": 1.99}
{"variant": "LSKFYWDCLEGKKSKHAPRGTHLW", "protein stability index": 2.13}
{"variant": "LSKAYWDCLEGKKSKHAPRGTHLW", "protein stability index": 2.23}
{"variant": "LSKTYWDCLEGKKSKHAPRGTHLW", "protein stability index": 2.87}
{"variant": "LSKNYWDCLEGKKSKHAPRGTHLW", "protein stability index": 2.84}
